No end group written: not given here.
T1: mouse melanocortin-5 (mMC5) receptor (mouse)
T1 chain: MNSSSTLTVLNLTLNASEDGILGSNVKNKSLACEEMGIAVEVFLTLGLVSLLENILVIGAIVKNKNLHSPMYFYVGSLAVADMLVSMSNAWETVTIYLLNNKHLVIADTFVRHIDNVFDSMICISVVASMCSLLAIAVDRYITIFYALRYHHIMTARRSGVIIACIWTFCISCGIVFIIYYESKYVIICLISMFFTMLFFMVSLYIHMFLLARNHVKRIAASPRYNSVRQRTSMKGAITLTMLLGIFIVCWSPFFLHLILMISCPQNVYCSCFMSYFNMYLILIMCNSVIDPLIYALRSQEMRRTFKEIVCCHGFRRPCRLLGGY

T2: human melanocortin-1 (MC1) receptor (human)
T2 chain: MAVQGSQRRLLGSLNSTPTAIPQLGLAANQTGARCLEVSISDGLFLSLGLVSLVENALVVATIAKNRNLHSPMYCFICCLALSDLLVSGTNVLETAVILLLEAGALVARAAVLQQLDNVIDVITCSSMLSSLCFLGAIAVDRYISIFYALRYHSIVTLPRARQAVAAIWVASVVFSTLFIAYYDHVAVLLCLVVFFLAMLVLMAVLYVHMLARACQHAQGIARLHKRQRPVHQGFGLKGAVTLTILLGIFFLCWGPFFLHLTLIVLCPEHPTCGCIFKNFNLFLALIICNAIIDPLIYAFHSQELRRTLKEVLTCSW


Key:
[1] = molecular target: T1, mouse melanocortin-5 (mMC5) receptor; assay: competition with radio-iodinated NDP-MSH on L-cells transfected with the mMC5 receptor
[2] = molecular target: human melanocortin-3 (MC3) receptor (human); assay: cell-based or functional assay
[3] = molecular target: human melanocortin-4 (MC4) receptor (human); assay: cell-based or functional assay
[4] = molecular target: T2, human melanocortin-1 (MC1) receptor; assay: cell-based or functional assay

human melanocortin-3 (MC3) receptor (human), sequence (chain, as listed by the source limits assumed): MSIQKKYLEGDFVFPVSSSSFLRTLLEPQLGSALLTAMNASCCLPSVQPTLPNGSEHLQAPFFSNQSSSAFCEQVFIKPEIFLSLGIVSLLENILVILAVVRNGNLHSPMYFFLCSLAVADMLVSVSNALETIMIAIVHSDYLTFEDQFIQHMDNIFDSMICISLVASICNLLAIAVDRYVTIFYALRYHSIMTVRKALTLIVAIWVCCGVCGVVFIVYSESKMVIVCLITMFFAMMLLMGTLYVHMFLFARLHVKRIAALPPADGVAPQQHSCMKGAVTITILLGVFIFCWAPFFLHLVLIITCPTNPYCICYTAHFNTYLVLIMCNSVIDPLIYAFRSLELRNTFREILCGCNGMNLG
human melanocortin-4 (MC4) receptor (human), sequence (chain, as listed by the source): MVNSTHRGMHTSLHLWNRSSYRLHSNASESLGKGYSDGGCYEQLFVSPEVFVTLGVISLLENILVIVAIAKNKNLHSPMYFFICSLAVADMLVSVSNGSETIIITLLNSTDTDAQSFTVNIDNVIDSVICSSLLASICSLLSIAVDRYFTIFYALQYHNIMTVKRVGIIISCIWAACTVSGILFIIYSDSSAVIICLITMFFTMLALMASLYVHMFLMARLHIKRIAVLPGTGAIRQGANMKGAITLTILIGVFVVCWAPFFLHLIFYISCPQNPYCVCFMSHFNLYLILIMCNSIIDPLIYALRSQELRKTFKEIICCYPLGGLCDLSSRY

fold greater binding affinity than ACTH (1-39) [1]	binding result [1]	ED50 of cAMP generation in transfected L-cells [2]	EC50 of cAMP increase in transfected L-cells [3]	ED50 of cAMP generation in transfected L-cells [4]	Binder
~10 fold	–	–	–	–	SYSMEHFRWGKPV [ACTH (1-13)]
–	binds	~1 nM	1 nM	~1 nM	SYSMEHFRWGKPVGKKRRPVKVYPNGAEDESAEAFPLEF [human ACTH (1-39)]
–	–	~1 nM	–	~1 nM	Ac-SYSMEHFRWGKPV (ends and bridges not checked) [α-MSH]
